These results are taken from paper PMC5505994 (Scientific Reports, 2017).

The chains are these.
B3: alkyl hydroperoxide reductase subunit C (AhpC) from Mycobacterium bovis (BCG strain), wild type (enzyme)
chain: MPLLTIGDQFPAYQLTALIGGDLSKVDAKQPGDYFTTITSDEHPGKWRVVFFWPKDFTFVCPTEIAAFSKLNDEFEDRDAQILGVSIDSEFAHFQWRAQHNDLKTLPFPMLSDIKRELSQAAGVLNADGVADRVTFIVDPNNEIQFVSATAGSVGRNVDEVLRVLDALQSDELCACNWRKGDPTLDAGELLKASA

The series “SEC” deals with the molecule itself. The experiment in a line: SEC.
Series [1] addresses B3. The experiment in a line: NMR titration. Particulars: both partners purified.
Series [2] concerns the molecule itself. Description: negative-stain electron microscopy with 2D classification.

B1: MbAhpC with deletion of the loop residues 23 to 34 (enzyme)
chain: MPLLTIGDQFPAYQLTALIGGDFTTITSDEHPGKWRVVFFWPKDFTFVCPTEIAAFSKLNDEFEDRDAQILGVSIDSEFAHFQWRAQHNDLKTLPFPMLSDIKRELSQAAGVLNADGVADRVTFIVDPNNEIQFVSATAGSVGRNVDEVLRVLDALQSDELCACNWRKGDPTLDAGELLKASA
Consider B1, for which, in “SEC”, the “stoichiometry N” value was 2.

B2: Mycobacterium bovis thioredoxin TrxC (natural protein)
chain: MTDSEKSATIKVTDASFATDVLSSNKPVLVDFWATWCGPCKMVAPVLEEIATERATDLTVAKLDVDTNPETARNFQVVSIPTLILFKDGQPVKRIVGAKGKAALLRELSDVVPNLN
Consider B2, for which the binding result in series [1] was “binds”.

On to B3, for which the entries for the “stoichiometry N” value (in series [2]; in the series “SEC”) were 12 and 2, respectively.
